The nature of the data set: soluble on expression in E. coli; label from the status in PepcDB or PDB records.
Take “MINRPSTVNNPFIGTNAVLRLRQQRLEQSTKPFRARGSRVMRCQQCLLPAINCLCHTIQAQPSRSRVCLVMFDTEPLKPSNTGRIIADILPETQAFRWSRTEPDPQLLATLQDPDVQPYLVFLADAAEEGRQVFQQLPATEKPALFVLLDGTWPEARKMFRKSPYLDNLPILSLNVEALSRYQLREASSAGQHCTAEIAIALLAQAGDIVAADALSQHFDRFRQHYLAGKPHHRLQENLPIVTAQPAESVLEHHHHHH”: the “soluble on expression in E. coli” value is “not soluble”.

Consider “MWEPSKRLKPVPILPELKEIGEQLQAQREQAMIEWAQTGYVKKLKARLVGRIIHGLGAGHIRETSLTIHPVYGLPYIPASSVKGLVRHWFIEAYCEGEEKQLNEHEIGREIFGTQGNKGIVQFHDIFLIESLQLTGDVLAVHMKEYYEGNRAATDDQKPVPVSFWTVMATEVDIYLTANRSAPQNDEETVRLLEAAALWTQQALTEWGIGSKTSSGYGRFAEVYDVTEMEFLPIVQKEQVRLEQQKKEREMLEQ”, for which the “soluble on expression in E. coli” value is recorded as “not soluble”.

Consider “MGSLYTSELSRAVSESVAAALQRSFQGELRSASALGSGWSTSAELLNRNDSTERYFVKLSEPQAVSMFSAEFEGIQAMAESETVRVPAPICYGNTAERSFIVLEYLELGGIGNEAVYRDFGEKLAAMHRCSSGGRGYGWHRGNTIGSTPQLNTWMHSWADFFVENRLRYQLKLARSRQGGRLRNEDALLQRVHSVLQEHEIQHQVTPSLVHGDLWTGNVATLRNQNEVVIFDPATYYGDREVDLAMTELFGRLPRAFYQAYDASWPLPKGYREKRRVIYNLYHILNHGALFGGGYYDQAQSMIETILR”, for which the “soluble on expression in E. coli” value is listed as “soluble”. On to “MAHHHHHHMAQEISNLVKKYNVTWQQTMLRIYDPKETVEFYEKNFGMINIHTYHFNEYNFSLYFLITPPYDEEERKKLPEPNTKESEKYLWNLNTVCLELTYNHNSQEKLSNGNNENDRGFGHIAFNCNDVIEQCDNLFKKNVKFHKLPHETKMKTIGFALDPNNYWIEIVKRSNQVKWKNYKNITNFSQTMIRVKNPEKSLYFYIHILGMKLIHVKHCSDFSLYFLKSNYACAENNKEMIEDQSNKNTNEIYDFNSLKNSYQTDEDYENFKQSWEPVLELTHNHGTEDDDNFSYHNGNTEPRGFGHIGFLVNDLENYCKELETLNVTFKKKVTEGLMKNIAFIYDPDNYVIELIQRDTSFIAK”, for which the “soluble on expression in E. coli” value was “soluble”. As for “SLLCVVGGSMNVSMEASIVESLLQRRCLKESDLYRARQLQAESGVGLLPLLGRLGLVSERDHAEVCAEVMGLLLIQVRELPDTPPEFSAEVHGLSIRFLKQFHVCPLAEHDGVLQLCVADPFDVYAIEALRLATGAVLQLCIGLRSEIDDLVERWYGQGRS”, the entry is “soluble”; as for “MGSDKIHHHHHHMTTINAANAGTYAFDDQFKVNRMGYGVMQLTGPGTWGPYADPENGVKVVKKALEYGVNFFDTADSYGPWFADRYLAAGLKDAANRDQIFISDKVGQTRQGPNVWTPLGEPRYLRQQVEVSMMTLGIDHEDLVFLHRIDPHYSIADQVGELKKLQDEGKIKHIGLSQVTVDQIKEAQQVAKIDAIENLYNVANHGDDDVVDYAASQKMAFLPWFPLATGELAQAGSVLSTMAQKYQVSPAQIALAWLLKRSDNIIPIPGTSSIEHLRDNVAAANVDLTTADFNGLSQLSVK”, “not soluble”.

Regarding “MGSDKIHHHHHHAEQKEEGISVLRYDKLLSEYVRSNSFSAMQKLTMDYRQPTKILIEDVLSIGTVKDDTISQRLQKFYSDSTLLRLLSDVEAKYPNLDEVEKGLTKGFRKLKKEVPDTKIPFIYSQISAFNESIILVDTLLGISLDKYMGEDYPLYKRFYYDYQCTSMRPERIVPDCFAFYLLSRYEMNYHEGTCLVDLMMHSGKINYVVQHLLGYDDIGQAMGYSDQENEWCRKNEKDIWEYICANDHLHARDPMVIRYYMKPAPTVDMLGGQAPALIGSWVGARIIASYMKKHKDLKIKDLLELTDYQSMFEESGYLKL”, the “soluble on expression in E. coli” value is reported as “not soluble”. As for “SSAKAQVNPAICRYPLGMSGGQIPDEDITASSQWSESTAAKYGRLDSEEGDGAWCPEIPVEPDDLKEFLQIDLHTLHFITLVGTQGRHAGGHGIEFAPMYKINYSRDGTRWISWRNRHGKQVLDGNSNPYDIFLKDLEPPIVARFVRFIPVTDHSMNVCMRVELYGCVWLDGLVSYNAPAGQQFVLPGGSIIYLNDSVYDGAVGYSMTEGLGQLTDGVSGLDDFTQTHEYHVWPGYDYVGWRNESATNGYIEIMFEFDRIRNFTTMKVHCNNMFAKGVKIFKEVQCYFRSEASEWEPNAISFPLVLDDVNPSARFVTVPLHHRMASAIKCQYHFADTWMMFSEITFQSDAAM”, the entry is “not soluble”; as for “MGILSGNPQNEPLHYGEVFDIWSYLLAAQGAIASHQVFMNHTGDEDLKKFLEGLIENDMNSEIEELKALLKINGVALPPAPPERPVASIEDIPPGARINDVEIAAAVSTGLAAGLVTCSQVMGKCLREDVGMLFGQFHMKKAQAGVTLLRLSKKKGWVVPPPLHVRNSDQA”, “not soluble”; as for “MSLTDNLQDLISTKLAAAIANPLFPAVDSQLRAGRHISLDQLDNHAFLMDFQGELDSFYRRYNVELIRAPEGFFYLRPKATTLIARSVLTELEMLVGKVLCYLYLSPERLAQQGIFSTQEVYDELLNLADENKLLKAVNQRSSGSDLDKQKLAEKVRAALNRLRRLGMIHGVGEQNSGKFTIAEAVFRFGAEVRAGDDPREAQLRPIRDGRPATPGFWAAGKTRSATGGEHRDEGGDEGGDEERAEGHHHHHH”, “soluble”. As for “MGHHHHHHSHMVPSSAETGGTNYLAPGGLSDSQLLLEPGDRSHWCVVAYWEEKTRVGRLYCVQEPSLDIFYDLPQGNGFCLGQLNSDNKSQLVQKVRSKIGCGIQLTREVDGVWVYNRSSYPIFIKSATLDNPDSRTLLVHKVFPGFSIKAFDYEKAYSLQRPNDHEFMQQPWTGFTVQISFVKGWGQCYTRQFISSCPCWLEVIFNSR”, the entry is “not soluble”.

“AETTVKPTKLAVIGAGAVGSTLAFAAAQRGIAREIVLEDIAKERVEAEVLDMQHGSSFYPTVSIDGSDDPEICRDADMVVITAGPRQKPGQSRLELVGATVNILKAIMPNLVKVAPNAIYMLITNPVDIATHVAQKLTGLPENQIFGSGTNLDSARLRFLIAQQTGVNVKNVHAYIAGEHGDSEVPLWESATIGGVPMSDWTPLPGHDPLDADKREEIHQEVKNAAYKIINGKGATNYAIGMSGVDIIEAVLHDTNRILPVSSMLKDFHGISDICMSVPTLLNRQGVNNTINTPVSDKELAALKRSAETLKETAAQFGF”: the “soluble on expression in E. coli” value is “soluble”. As for “MVESENKDIEESGAEVDRRDVRSLVRKLSDNNWEIPKGHIPNMRVPGRLFVSEKLLEGIEPGTIDQIANVATLPGIQKYSMAMPDAHLGYGFAIGGVAAFDVEEGVISPGGVGFDINCGVRLIRTNLQKEDVVPHIKRLTDELFSNVPSGVGSKSRFKASDKELDSAFLEGAKWAVDAGYGVEADVEHCEGNGFLEGADTSHVSSKARNRGKPQLGTLGSGNHFLEVQYVDEIYDPEVASAFGLEEGQVTVMVHCGSRGAGHQICTDHLKELSQAVKRYGIEIPDKQLACAPAQSKEAQNYFKAMLCAANYAWANRQMITHWTRESFEKIFGRDADDMEMSLLYDVAHNVAKLEEHSIEGRKKEVYVHRKGATRAFPAGHPEVPSAYRDVGQPVLIPGSMGTPSFILCGSTESMDVSFGSACHGAGRVMSRAHAKKEFHGQSIKEDLEAHGITVRATHPSVIAEEAPGVYKSSSEVVNVVHELGIARKVARVIPLGVAKGLEHHHHHH”, the entry is “not soluble”; as for “GMMYTNDNRIVMTLDAGGTNFVFSAIQGGKEIADPVVLPACADCLDKCLGNLVEGFKAIQAGLPEAPVAISFAFPGPADYQAGIIGDLPNFPSFRGGVALGPFLEDIFGIPVFINNDGSLFAYGEALTGVLPEINRRLREAGSTKRYKNLLGVTLGTGFGAGVVIDGELLRGDNAAGGYVWCLRNKKYPEYIVEESVSIRAVMRVYAERSGDAGARTPKEIFEIAEGIRPGNREAAIAAFEELGEMAGDALASAITLIDGLIVIGGGLSGASKYILPVLLKEMNAQTGMMDGARFGRLQKEVYDLDEEKSFAGFARGEAVEVLVPGTNRKVGYDPCKRIGVTFSKQGANRSIAMGAYVFALNHLSK”, “soluble”. As for “MAHHHHHHMLGEGLDIGFYAEDAYAAYVTDLATSLHLVPHCRNARGATLEVVFTGPFHDLSAYEEAVKQGKLVPYAELPWPVAEERGVQGVSGATLSVTLHGWIEKLNAARKVQLMEPLFPAAELGATIAEICVMGDAGNSAPCAFASTSPPCVAESAGTSNEKGTHPSLKPSRFRILGSLDFLLHLSSRDWLMGESSVPADSPSADGRDEANPNFAVGADDATRAAHACRDALEQRDDVALARNAVNTVIKMAQMAEEHPGEVGSVFVDAKERVEYIQFSAQ”, the entry is “not soluble”. In the case of “MGSDKIHHHHHHMPKLGFVQVEVSTRCQLSCLMCPKSCFSDEWIAKDMNMETFRLIPFKKFHYAHLQGWGEPLLNPNIGEMVDIAAKSCKVGLTTNGLLIDHHIDSILKLDLLAVSVASGDARQHERVRGCSLEKLAGNIKLVSESRGKRPKIVIATMMLKSTIESLPKLIDFAAECGADEVIANNLDYIPSKELVGEEVFGLTADKDVEKAVEQAGKRAEELGIGFIAKPRLMEEALVCAENPVENCVVAVDGRIAPCAYLNLPTASETIPRWFRGRTVEVPKVYFSSFKEWLKSDFRDTFKRRLQVLHQSLPTELPPLPQPCRTCYKAYSV” it was “not soluble”. On to “MGSDKIHHHHHHMAAPIIHGGGITEAAARFGGTPEDWLDLSTGINPCPAALPEIDARVWHRLPDRHVEEAARAAASRYYRTGELMPLPVPGTQAAIQLLPRIAGQRKRVAIFAPTYGEYARVLKAAGLVVDSVTCAGDLQAAHGLAVVVNPNNPTGRRFPPEEILAMAEAMRAHGGLLVVDEAFGDLEPDASVAGHVAANDNLVVFRSFGKYFGLAGLRLGFVVASRTVEDSFRDWLGPWSVSGPALAISAKLMEGDTLGIKVGIAERKAALDAVLFGAGLDVVGGTGLFTLVEHERAYDLHAALCEAHILTRKFDYDPRWLRIGLSPNAQGDRRLAEALNRMGV”, for which the “soluble on expression in E. coli” value is “not soluble”. In the case of “MRRRSGINTSAVRYCLRKRKDITLLNPIVRKFQYGQHTVTLETGMMARQATAAVMVSMDDTAVFVTVVGQKKAKPGQDFFPLTVNYQERTYAAGRIPGSFFRREGRPSEGETLIARLIDRPIRPLFPEGFVNEVQVIATVVSVNPQVNPDIVAMIGASAALSLSGIPFNGPIGAARVGYINDQYVLNPTQDELKESKLDLVVAGTEAAVLMVESEAELLSEDQMLGAVVFGHEQQQVVIQNINELVKEAGKPRWDWQPEPVNEALNARVAALAEARLSDAYRITDKQERYAQVDVIKSETIATLLAEDETLDENELGEILHAIEKNVVRSRVLAGEPRIDGREKDMIRGLDVRTGVLPRTHGSALFTRGETQALVTATLGTARDAQVLDELMGERTDTFLFHYNFPPYSVGETGMVGSPKRREIGHGRLAKRGVLAVMPDMDKFPYTVRVVSEITESNGSSSMASVCGASLALMDAGVPIKAAVAGIAMGLVKEGDNYVVLSDILGDEDHLGDMDFKVAGSRDGISALQMDIKIEGITKEIMQVALNQAKGARLHILGVMEQAINAPRGDISEFAPRIHTIKINPDKIKDVIGKGGSVIRALTEETGTTIEIEDDGTVKIAATDGEKAKHAIRRIEEITAEIEVGRVYTGKVTRIVDFGAFVAIGGGKEGLVHISQIADKRVEKVTDYLQMGQEVPVKVLEVDRQGRIRLSIKEATEQSQPAAAPEAPAAEQGE” it was “not soluble”; in that of “MSAQAKPRSEMTAEELAAKEDEEFNVGPLSILTNSVKNNHQVLINCRNNKKLLGRVKAFDRHCNMVLENVKEMWTEVPKTGKGKKKAKSVAKDRFISKMFLRGDSVILVVKNPLAQAE”, “not soluble”. As for “MSQYSNMYKFEIDIQGNLEEVYGRIFSVLKQAGYIILSYVDVAEILQRTMQKKIDPLYILNICKPAAANEFISESYETSMFIPCKLVLHQMGENTRVSLQLISPQIETFTDLSTDVAKKYENEIVDILKKM”, the entry is “not soluble”.

For the origin of these results see the DeepSol protein solubility set.
